Test [1] concerns the target T1, soluble human insulin receptor-immunoglobulin heavy chain chimera (sIR-Fc; Bass et al., 1996) (human, UniProt P06213 28-956, limits assumed).
T1 construct: extracellular domain; also called soluble IR (Bass construct); not shown: immunoglobulin heavy chain constant domains
The test can be described thus: phage ELISA. In general terms: An ELISA detects its analyte on a solid surface through an enzyme-linked reagent.

For test [2], the target named is T2, Soluble IGF-1R (sIGF-1R), R&D Systems Cat. # 391-GR/CF (UniProt P08069 31-935, limits assumed).
T2 construct: extracellular domain
Briefly: phage ELISA.

Consider RGIVAMVEATEVGSDHDPFYHKLSELVQGS [B6Hα-2-C7-IR], for which, in test [1], the IR/IGF-1R comparison came to 0.1 and the “Ratio over Background” value worked out at 1. For the same molecule, in test [2], the IGF-1R/IR comparison was determined as 6.7 and the “Ratio over Background” value was 6.7.
RQGTGSFYLMLEQLLVGARGP [20E2B-4-G11-IGFR]: in test [1], the IR/IGF-1R comparison was 0.1 and the “Ratio over Background” value stood at 0.6. In addition, in test [2], the IGF-1R/IR comparison was 7 and the “Ratio over Background” value amounted to 4.5.
The like results for ICTGQGFYQVLCGLLRGTSAR [20E2B-2-B3-IGFR] were, in that order, 0.1, 0.7, 7.4 and 5.3.
For LSSDGQFYRALNLLLQGSAGR [20E2B-2-B7-IGFR], in test [1], the IR/IGF-1R comparison stood at 0.1 and the “Ratio over Background” value came to 0.9. Besides, in test [2], the IGF-1R/IR comparison is 6.7 and the “Ratio over Background” value is 6.1.
The like results for QGNVLDFYGWIGRLLAKQGSD [20E2B-3-D12-IGFR] were, in that order, 0.1, 0.9, 7.3 and 6.2.
For DSVGDNFYQLLESLVGGHGVG [20E2B-3-D6-IGFR], in that order: 0.1, 2.6, 6.9 and 17.8.
As to QPDHSYFYSLLQELVGSEERL [20E2B-4-F9-IGFR], in test [1], the IR/IGF-1R comparison was found to be 0.1 and the “Ratio over Background” value was 1.9. Further, in test [2], the IGF-1R/IR comparison was 7.7 and the “Ratio over Background” value was 14.7.
In the case of QFYGCLLDLSLGVPSFGWRRRCITA [20C-3-A4-IGFR], in test [1], the IR/IGF-1R comparison was found to be 0.1 and the “Ratio over Background” value came to 1.2. Moreover, in test [2], the IGF-1R/IR comparison was 7.6 and the “Ratio over Background” value amounted to 8.8.
The like results for SAAQLFFQESFYDWFLRQVAESSQPN [H2CA-4-F11-IGFR] were, in that order, 0.1, 1, 6.7 and 6.8.
On to IWATGDFYRLLSQLVMGRVGT [20E2B-2-B8-IGFR], for which, in test [1], the IR/IGF-1R comparison came out at 0.1 and the “Ratio over Background” value turned out to be 0.8. Further, in test [2], the IGF-1R/IR comparison amounted to 7.2 and the “Ratio over Background” value was determined as 5.7.
For the molecule VATSQGFYSGLSELLQGGGNV [20E2B-3-E12-IGFR], in test [1], the IR/IGF-1R comparison came out at 0.1 and the “Ratio over Background” value was 0.8. In test [2], the IGF-1R/IR comparison was 7.3 and the “Ratio over Background” value amounted to 6.
For LGVTDGFYAALGYLIHGVGQF [20E2B-3-D11-IGFR], in test [1], the IR/IGF-1R comparison was determined as 0.1 and the “Ratio over Background” value is 1.6. Moreover, in test [2], the IGF-1R/IR comparison was determined as 7.6 and the “Ratio over Background” value turned out to be 12.2.
With EGSGFYGYFFSLLGLQG [NNRPγ-4-A9-IR], in test [1], the IR/IGF-1R comparison is 0.1 and the “Ratio over Background” value was 1.4. In test [2], the IGF-1R/IR comparison was found to be 7.1 and the “Ratio over Background” value was 10.

The record behind these values is patent US20070265189A1 (published 2007).
